Measured values: paper PMC4734665

Target: WRKY6-His (UniProt Q9C519)
Assay: EMSA
Conditions: EMSA: 20 uL, 0.5 ug protein, 1 uL of 50 ug/mL biotin probe, 2 uL 10x buffer (1x = 10 mM Tris, 50 mM KCl, 1 mM DTT, pH 7.5), 1 uL 1% NP-40, 0.5 uL 1 mg/mL …

Chain of WRKY6-His (Q9C519 whole entry): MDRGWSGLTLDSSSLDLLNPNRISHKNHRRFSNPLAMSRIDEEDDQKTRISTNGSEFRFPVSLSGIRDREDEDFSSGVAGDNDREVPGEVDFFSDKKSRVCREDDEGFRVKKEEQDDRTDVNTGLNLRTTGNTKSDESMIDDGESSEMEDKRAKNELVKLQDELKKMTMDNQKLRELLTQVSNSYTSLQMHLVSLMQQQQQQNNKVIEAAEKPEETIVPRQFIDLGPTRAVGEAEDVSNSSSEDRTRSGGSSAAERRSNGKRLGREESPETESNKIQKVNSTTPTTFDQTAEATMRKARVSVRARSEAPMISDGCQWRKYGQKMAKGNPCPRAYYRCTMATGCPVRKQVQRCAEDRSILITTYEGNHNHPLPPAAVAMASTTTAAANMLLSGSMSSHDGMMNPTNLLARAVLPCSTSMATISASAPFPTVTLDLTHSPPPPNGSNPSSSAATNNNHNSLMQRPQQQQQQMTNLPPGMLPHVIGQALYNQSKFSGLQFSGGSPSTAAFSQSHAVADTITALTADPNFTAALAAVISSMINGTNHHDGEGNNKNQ

| Sequence | binding |
| --- | --- |
| GGAAAATTCCTATTTTCCCGATTACATTTTAACACATCAAAATAGGTACTGTGTTTTATAAATCTGAACAAACAATTAGTAATGTTCATACTTTAACATTTAAAAAATTCAAATTATCTACCTCAACTCTTACTTTTGTACATAATTATGAGTCAACGTTAGTTATGGTAATTAACAGTAACGGTTGTTGAATCAGCTAACACTTGTACGTCGAGATGGCATGTTCTTCAAACCAAAT (double strand) [ABI3 promoter fragment] | binds |
| GATAAGATCGTAAGCTATCCACATCACTTGTTAATTGTCCTCAAACCATATTATATAATGCAAACAATTTATGGCGTTAAATCCTTACGTATTTATTCTCTATAAGAGTAAAACACACACACTGAAGGCAACTGATTTAATTGGATTTCTATACGTCAGTAGAAATACTTGTTATGATGTCGGTCGCTCGTTGGCTAAGTATTTCTTATAAATATATAAGACATATTTAAAATCTTTTTACATTACATACACCCACTTATGAGAAAC (double strand) [RAV1 promoter P2 mutant] | no binding |
| GATAAGATCGTAAGCTATCCACATCACTTGTTAATTGTCCTCAAACCATATTATATAATGCAAACAATTTATGGCGTTAAATCCTTACGTATTTATTCTCTATAAGAGTAAAACACACACACTGAAGGCAACTGATTTAATTGGATTTCTATTGACCAGTAGAAATACTTGTTATGATGTCGGTCGCTCGTTGGCTAAGTATTTCTTATAAATATATAAGACATATTTAAAATCTTTTTACATTACATACACCCACTTATGAGAAAC (double strand) [RAV1 promoter P2] | binds |
